Reference: patent publication US20100029554A1, “Composition and Methods for Treatment of Congestive Heart Failure” (Amylin Pharmaceuticals, Inc., priority 2006, published 2010)
Where no end group is shown, it is not given here.

T1: GLP-1 receptor, endogenous in RINm5f cells (rat (RIN-m5F are called rat pancreas …, UniProt P32301 22-463))
T1 sequence (looked up): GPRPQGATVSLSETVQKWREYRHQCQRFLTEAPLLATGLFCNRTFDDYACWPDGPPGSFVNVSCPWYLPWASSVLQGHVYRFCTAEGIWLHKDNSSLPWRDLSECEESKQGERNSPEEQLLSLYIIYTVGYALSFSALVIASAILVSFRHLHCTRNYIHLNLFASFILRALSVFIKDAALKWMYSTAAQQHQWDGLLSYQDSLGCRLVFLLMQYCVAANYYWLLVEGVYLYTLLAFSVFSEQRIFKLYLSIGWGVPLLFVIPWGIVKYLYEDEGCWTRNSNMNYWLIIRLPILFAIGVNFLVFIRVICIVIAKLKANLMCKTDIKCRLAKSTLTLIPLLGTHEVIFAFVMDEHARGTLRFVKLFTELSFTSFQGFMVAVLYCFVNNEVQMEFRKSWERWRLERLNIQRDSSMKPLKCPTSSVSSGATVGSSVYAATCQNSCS


Target: T1, GLP-1 receptor, endogenous in RINm5f …
Assay: cell-based or functional assay
Settings: not given

Molecule | cAMP, CYCLASE GLP/GIP/CT (RIN) EC50 | cAMP, GLP-1 CYCLASE (6-23) EC50
HGEGTFTSDVTEYLEEEAVRLFIEWLKQGGPSSGAPPPS-NH2 [Cmpd 5129] | 1.09 nM | –
HGEGTFTSDLSKQLEEEAVRLFIEWLKNGKPGKGKIRYS [Cmpd 5295] | – | 0.089 nM
HGEGTFTSDLSKQLEEEAVRLFIEWLKNGKPGGKKIRYS [Cmpd 5451] | 0.205 nM | –
HGEGTFTSDLSKQLEEEAVRLFIEWLKNGGPSKEIIA [Cmpd 5444] | – | 0.09 nM
HGEGTFTSDLSKQLEEEAVRLFIEWLKNGGPSKEIAS [Cmpd 5445] | – | 0.09 nM
HGEGTFTSDLSKQLEEEAVRLFIEWLKNGGPSKAIIS [Cmpd 5446] | – | 0.1 nM
HGEGTFTSDLSKQVQEEAVRLFVEFLKN-NH2 [Cmpd 5035] | 628 nM | –
HGEGTFTSDLSKQLEEEAVRLFIEWLIKGKP [Cmpd 5227] | – | 0.629 nM
HGEGTFTSDLSKQLEEEAVRLFIEWLKNGKPKKIRYA [Cmpd 5439] | – | 0.17 nM
HGEGTFTSDLSKQLEEEAVRLFIEWLKNGKPKKARYS [Cmpd 5441] | – | 0.128 nM
HGEGTFTSDLSKQLEEEAVRLFIEWLKNGKPKAIRYS [Cmpd 5442] | – | 0.1 nM
HGEGTFTSDLSKQLEEEAVRLFIEWLKNGKPAKIRYS [Cmpd 5443] | – | 0.08 nM
HGEGTFTSDLSKQLEEEAVRLFIEWLKNGKPKKIAYS [Cmpd 5440] | – | 0.13 nM
HGEGTFTSDLVKILEAEAVRKFIEFLKNGGPSSGAPPPS-NH2 [Cmpd 5529] | – | 0.388 nM
HGEGTFTSDLSKQLEEKAAKEFIEWLIQGGPSKEIIS [Cmpd 5101] | 0.863 nM | –

System: GLP/GIP/CT cyclase, RIN-m5F cells
Assay: GLP/GIP/CT Cyclase (RIN) assay
Type: cell-based, rat
Settings: cAMP, values without **
Protocol: GLP/GIP/CT Cyclase (RIN) Assay
Five μl of serially diluted peptides are transferred to the 384-well assay plate. Rat pancreas insulinoma cells (RIN-m5F) are detached from a tissue culture flask with Versene and washed once in buffer. Then RIN-m5F cells are resusupended in buffer at 2.5×10^6 cells/ml. Then 10 μl cells (2.5×10^4 cells) are added to all wells of the assay plate and cells are stimulated at room temperature in the dark for 30 minutes. The reaction is terminated with 10 μl of lysis buffer and incubated at room temperature for 4 hrs in the dark. cAMP content is measured using Perkin Elmer AlphaScreen™ cAMP assay kit and results are read on a Perkin Elmer Fusion fluorometer. The assay is completed in 384-well plates at 25 microliter volumes.

Molecule | EC50
CC[C@H](C)[C@H](NC(=O)[C@@H]1CCCN1C(=O)[C@@H](NC(=O)CNC(=O)CNC(=O)CNC(=O)[C@H](CO)NC(=O)[C@@H]1CCCN1C(=O)[C@H](CCCNC(=N)N)NC(=O)CNC(=O)[C@H](CCCCN)NC(=O)[C@@H](NC(=O)[C@H](CC(C)C)NC(=O)[C@H](Cc1c[nH]c2ccccc12)NC(=O)[C@H](C)NC(=O)[C@@H](NC(=O)[C@H](Cc1ccccc1)NC(=O)[C@H](CCC(=O)O)NC(=O)[C@H](CCCCN)NC(=O)[C@H](C)NC(=O)[C@H](C)NC(=O)[C@H](CCC(N)=O)NC(=O)CNC(=O)[C@H](CCC(=O)O)NC(=O)[C@H](CC(C)C)NC(=O)[C@H](Cc1ccc(O)cc1)NC(=O)[C@H](CO)NC(=O)[C@H](CO)NC(=O)[C@@H](NC(=O)[C@H](CC(=O)O)NC(=O)[C@H](CO)NC(=O)[C@@H](NC(=O)[C@H](Cc1ccccc1)NC(=O)[C@@H](NC(=O)CNC(=O)[C@H](CCC(=O)O)NC(=O)[C@H](C)NC(=O)[C@@H](N)Cc1c[nH]cn1)[C@@H](C)O)[C@@H](C)O)C(C)C)[C@@H](C)CC)C(C)C)[C@@H](C)CC)C(N)=O [Cmpd 4888] | 0.17 nM
GLP-1-(7-37)-GG-(S)-2,6-diamino-1-(thiazolidin-2-cyano-3-y1)hexan-1-one amide (HAEGTFTSDVSSYLEGQAAKEFIAWLVKGRGGG; C-terminal cyano DPP4 inhibitor moiety, amide) [Cmpd 4845] | 0.4 nM
HGEGTFTSDLSKQVQEEAVRLFVEFLKN-NH2 [Cmpd 5035] | 628 nM
HGEGTFTSDLVKILEAEAVRKFIEFLKN-NH2 [Cmpd 5052] | 4.5 nM
HGEGTFTSDVTQQLEEEAVRLFIEWLKQGGPSSGAPPPS-NH2 [Cmpd 5099] | 1.29 nM

System: not listed separately
Assay: Plasma stability
Type: in vitro ADME
Settings: 20 μg/mL in plasma, 37° C., 0-5 hours
Protocol: To assess stability, the compound of interest is spiked into plasma at a concentration of 20 μg/mL. It is incubated at 37° C. for 0, 1, 2 3, 4, 5 hours in triplicate. At each time point, MeOH is added to a 96 well microtiter plate and then sample is added in a ratio of 1 part sample to 4 parts MeOH to quench the digestion reaction. Samples are mixed with multi-channel pipette or liquid handler. The plate is then centrifuged for 10 minutes and placed in an autosampler kept at 10° C. Samples are then injected into a mass spectrometer (API 3000, Applied Biosystems) equipped with an autosampler (Leap HTC Pal) and HPLC pumps (Shimadzu LC-10ADVP).

Molecule | plasma stability as compared to native GLP-1
CC[C@H](C)[C@H](NC(=O)[C@H](Cc1ccccc1)NC(=O)[C@H](CCC(=O)O)NC(=O)[C@H](CCCCN)NC(=O)[C@H](C)NC(=O)[C@H](C)NC(=O)[C@H](CCC(N)=O)NC(=O)CNC(=O)[C@H](CCC(=O)O)NC(=O)[C@H](CC(C)C)NC(=O)[C@H](Cc1ccc(O)cc1)NC(=O)[C@H](CO)NC(=O)[C@H](CO)NC(=O)[C@@H](NC(=O)[C@H](CC(=O)O)NC(=O)[C@H](CO)NC(=O)[C@@H](NC(=O)[C@H](Cc1ccccc1)NC(=O)[C@@H](NC(=O)CNC(=O)[C@H](CCC(=O)O)NC(=O)[C@H](C)NC(=O)[C@H](Cc1c[nH]cn1)NC(=O)COCCOCCNC(=O)[C@@H]1CCCN1C(=O)[C@H](C)NC(CCc1ccccc1)C(=O)O)[C@@H](C)O)[C@@H](C)O)C(C)C)C(=O)N[C@@H](C)C(=O)N[C@@H](Cc1c[nH]c2ccccc12)C(=O)N[C@@H](CC(C)C)C(=O)N[C@H](C(=O)N[C@@H](CCCCN)C(=O)NCC(=O)N[C@@H](CCCNC(=N)N)C(N)=O)C(C)C (stereo partly drawn) [Cmpd 4983, (R,S)-1-[N2-(1-carboxy-3-phenylpropyl)-L-ala]-L-pro-ado-GLP-1-(7-36) amide] | increased plasma stability
CC[C@H](C)[C@H](NC(=O)[C@H](Cc1ccccc1)NC(=O)[C@H](CCC(=O)O)NC(=O)[C@H](CCCCN)NC(=O)[C@H](C)NC(=O)[C@H](C)NC(=O)[C@H](CCC(N)=O)NC(=O)CNC(=O)[C@H](CCC(=O)O)NC(=O)[C@H](CC(C)C)NC(=O)[C@H](Cc1ccc(O)cc1)NC(=O)[C@H](CO)NC(=O)[C@H](CO)NC(=O)[C@@H](NC(=O)[C@H](CC(=O)O)NC(=O)[C@H](CO)NC(=O)[C@@H](NC(=O)[C@H](Cc1ccccc1)NC(=O)[C@@H](NC(=O)CNC(=O)[C@H](CCC(=O)O)NC(=O)[C@H](C)NC(=O)[C@H](Cc1c[nH]cn1)NC(=O)COCCOCCNC(=O)COCCOCCNC(=O)[C@@H]1CCCN1C(=O)[C@H](C)NC(CCc1ccccc1)C(=O)O)[C@@H](C)O)[C@@H](C)O)C(C)C)C(=O)N[C@@H](C)C(=O)N[C@@H](Cc1c[nH]c2ccccc12)C(=O)N[C@@H](CC(C)C)C(=O)N[C@H](C(=O)N[C@@H](CCCCN)C(=O)NCC(=O)N[C@@H](CCCNC(=N)N)C(N)=O)C(C)C (stereo partly drawn) [Cmpd 4984, (R,S)-1-[N2-(1-carboxy-3-phenylpropyl)-L-ala]-L-pro-ado-ado-GLP-1-(7-36) amide] | increased plasma stability
CC[C@H](C)[C@H](NC(=O)[C@H](Cc1ccccc1)NC(=O)[C@H](CCC(=O)O)NC(=O)[C@H](CCCCN)NC(=O)[C@H](C)NC(=O)[C@H](C)NC(=O)[C@H](CCC(N)=O)NC(=O)CNC(=O)[C@H](CCC(=O)O)NC(=O)[C@H](CC(C)C)NC(=O)[C@H](Cc1ccc(O)cc1)NC(=O)[C@H](CO)NC(=O)[C@H](CO)NC(=O)[C@@H](NC(=O)[C@H](CC(=O)O)NC(=O)[C@H](CO)NC(=O)[C@@H](NC(=O)[C@H](Cc1ccccc1)NC(=O)[C@@H](NC(=O)CNC(=O)[C@H](CCC(=O)O)NC(=O)[C@H](C)NC(=O)[C@H](Cc1c[nH]cn1)NC(=O)COCCOCCN)[C@@H](C)O)[C@@H](C)O)C(C)C)C(=O)N[C@@H](C)C(=O)N[C@@H](Cc1c[nH]c2ccccc12)C(=O)N[C@@H](CC(C)C)C(=O)N[C@H](C(=O)N[C@@H](CCCCN)C(=O)NCC(=O)N[C@@H](CCCNC(=N)N)C(N)=O)C(C)C [Cmpd 4992] | increased plasma stability
HGEGTFTSDVTQQLEEEAVRLFIEWLKQGGPSSGAPPPS-NH2 [Cmpd 5099] | increased plasma stability

Same assay, conditions: second, narrower list of b152; 20 μg/mL in plasma, 37° C., 0-5 hours

Molecule | plasma stability as compared to native GLP-1
CC[C@H](C)[C@H](NC(=O)[C@H](Cc1ccccc1)NC(=O)[C@H](CCC(=O)O)NC(=O)[C@H](CCCCN)NC(=O)[C@H](C)NC(=O)[C@H](C)NC(=O)[C@H](CCC(N)=O)NC(=O)CNC(=O)[C@H](CCC(=O)O)NC(=O)[C@H](CC(C)C)NC(=O)[C@H](Cc1ccc(O)cc1)NC(=O)[C@H](CO)NC(=O)[C@H](CO)NC(=O)[C@@H](NC(=O)[C@H](CC(=O)O)NC(=O)[C@H](CO)NC(=O)[C@@H](NC(=O)[C@H](Cc1ccccc1)NC(=O)[C@@H](NC(=O)CNC(=O)[C@H](CCC(=O)O)NC(=O)[C@H](C)NC(=O)[C@H](Cc1c[nH]cn1)NC(=O)COCCOCCNC(=O)[C@@H]1CCCN1C(=O)[C@H](C)NC(CCc1ccccc1)C(=O)O)[C@@H](C)O)[C@@H](C)O)C(C)C)C(=O)N[C@@H](C)C(=O)N[C@@H](Cc1c[nH]c2ccccc12)C(=O)N[C@@H](CC(C)C)C(=O)N[C@H](C(=O)N[C@@H](CCCCN)C(=O)NCC(=O)N[C@@H](CCCNC(=N)N)C(N)=O)C(C)C (stereo partly drawn) [Cmpd 4983, (R,S)-1-[N2-(1-carboxy-3-phenylpropyl)-L-ala]-L-pro-ado-GLP-1-(7-36) amide] | increased plasma stability
CC[C@H](C)[C@H](NC(=O)[C@H](Cc1ccccc1)NC(=O)[C@H](CCC(=O)O)NC(=O)[C@H](CCCCN)NC(=O)[C@H](C)NC(=O)[C@H](C)NC(=O)[C@H](CCC(N)=O)NC(=O)CNC(=O)[C@H](CCC(=O)O)NC(=O)[C@H](CC(C)C)NC(=O)[C@H](Cc1ccc(O)cc1)NC(=O)[C@H](CO)NC(=O)[C@H](CO)NC(=O)[C@@H](NC(=O)[C@H](CC(=O)O)NC(=O)[C@H](CO)NC(=O)[C@@H](NC(=O)[C@H](Cc1ccccc1)NC(=O)[C@@H](NC(=O)CNC(=O)[C@H](CCC(=O)O)NC(=O)[C@H](C)NC(=O)[C@H](Cc1c[nH]cn1)NC(=O)COCCOCCN)[C@@H](C)O)[C@@H](C)O)C(C)C)C(=O)N[C@@H](C)C(=O)N[C@@H](Cc1c[nH]c2ccccc12)C(=O)N[C@@H](CC(C)C)C(=O)N[C@H](C(=O)N[C@@H](CCCCN)C(=O)NCC(=O)N[C@@H](CCCNC(=N)N)C(N)=O)C(C)C [Cmpd 4992] | increased plasma stability
HGEGTFTSDVTQQLEEEAVRLFIEWLKQGGPSSGAPPPS-NH2 [Cmpd 5099] | increased plasma stability
